Target: microtubules (MT fraction from mouse brain) (mouse (endogenous in mouse brain)) (UniProt P68369)
Experiment: co-sedimentation

recombinant human tau lacking the MT-binding domain (tau ΔMTBD) (from UniProt P10636-6 1-383) (natural protein)
MT-bound fraction: 0.619 | MT-unbound fraction: 0.381
